Assays:
Assay type in all cases: in vivo, mouse
[1] = system: SCD Tg mice; test: Hypoxia/reoxygenation-induced acute sickle crisis in SCD Tg mice with PEG-ADA pretreatment
Method: Adenosine Analysis. The adenosine concentration present in whole blood was measured by HPLC as previously described (Knudsen, T. B., et al. Effects of (R)-deoxycoformycin (pentostatin) on intrauterine nucleoside catabolism and embryo viability in the pregnant mouse. Teratology 45, 91-103, 1992) with modifications. In brief, 500 μl of 0.6 M cold perchloric acid was added to 500 μl blood on ice, mixed using a vertex mixer and subsequently subject to sonication for 10 seconds with output 6 (W-220F, Heat Systems-Ultrasonic, Inc.). The homogenate was centrifuged at 20,000 g for 10 min at […]. The supernatant (568 μl) was transferred to a new tube and neutralized with 40.9 μl 3 M KHCO3/3.6 N KOH. Phenol red (2 μl of 0.2 mg/ml) was added as indicator. The sample was acidified with 5.7 μl of 1.8 M ammonium dihydrogen phosphate (pH 5.1) and 13.2 μl phosphoric acid (30%). Finally, the sample was centrifuged at 20,000 g for 5 min and the supernatant was transferred to a new tube and stored at −20° C. Before HPLC assay, the sample was thawed on ice, then centrifuged at 20,000 g for 10 minutes. The supernatant was transferred to a new tube for HPLC analysis as described previously (Aldrich, et al. Adenosine deaminase-deficient mice: models for the study of lymphocyte development and adenosine signaling. Adv Exp Med. Biol. 2000; 486, 57-63; Blackburn, et al. Metabolic and immunologic consequences of limited adenosine deaminase expression in mice. The Journal of Biological Chemistry. 1996; 271(25):15203-15210). Plasma adenosine measurements were performed as with whole blood, except the sonication step was omitted. Adenosine content was normalized to volume.
(§1) Hypoxia/reoxygenation of SCD Tg mice. SCD Tg mice were subjected to two-hour hypoxic condition with 8% oxygen. After hypoxia, mice were returned to normoxic conditions for four hours Wallace, et al. NKT cells mediate pulmonary inflammation and dysfunction in murine sickle cell disease through production of IFN-gamma and CXCR3 chemokines. Blood. 2009; 114(3):667-676). At the end of the experiments, mice were sacrificed and blood collected for adenosine measurement, sickling and hemolytic analysis.
Morphological study of erythrocytes and quantification of reticulocytes by flow cytometry. Blood smears were stained using the WG16-500 ml kit (Sigma-Aldrich) for sickled cells and observed using 100× oil immersion objective of Olympus BX60 microscope. […] The percentages of sickled cells among the counted cells were calculated. Reticulocyte was labeled by Retic-COUNT Reagent (Becton Dickinson) and quantified by flow cytometry (Perumbeti, et al., A novel human gamma-globin gene vector for genetic correction of sickle cell anemia in a humanized sickle mouse model: critical determinants for successful correction. Blood. 2009; 114(6):1174-1185).
(§2) 2,3-DPG analysis. 2,3-DPG concentration in RBCs was detected by a commercially available kit (Roche, Nutley, N.J., and as described in Ericson A, de Verdier C H. A modified method for the determination of 2,3-diphosphoglycerate in erythrocytes. Scandinavian journal of clinical and laboratory investigation. 1972; 29(1):84-90).
Hemolytic analysis. The hemoglobin, haptoglobin and total bilirubin in mouse plasma were quantified by ELISA kits following instructions provided by the vendor (BioAssay Systems, Hayword, Calif.).

[2] = system: SCD Tg mice; test: Lung inflammation (neutrophils, cytokines) after hypoxia/reoxygenation in SCD Tg mice; settings: hypoxia-reoxygenation
Description: as §1
Immunohistochemistry to assess neutrophil infiltration in the lung. To quantify neutrophils, a specific neutrophil antibody, was used as described (Zhou, et al., Enhanced airway inflammation and remodeling in adenosine deaminase-deficient mice lacking the A2B adenosine receptor. J. Immunol. 2009; 182(12):8037-8046). Rehydrated slides were quenched with 3% hydrogen peroxide, Ag retrieval performed (Dako), and endogenous avidin and biotin blocked with a Biotin Blocking System (Dako). […] Quantification of distal airway neutrophils-positive cells was performed on 20 fields/mouse lung section at ×20 using software analysis (Image Pro Plus 4.0; Media Cybernetics, Bethesda, Md., USA).
ELISA for INF-γ, IL-6, IL-1β and GM-CSF measurement in the mouse lung homongenates. INF-γ, IL-6, IL-1β and GM-CSF levels in lung homogenates were determined using ELISA kits (QUANGI).

[3] = system: SCD Tg mice; test: 2,3-DPG in RBCs and saturated Hb in SCD Tg mice after chronic treatment
Method: (§3) Chronic PEG-ADA therapy. SCD transgenic mice, at eight weeks of age, were divided to two groups. One group was injected with 2.5 U PEG-ADA weekly for 8 weeks. This dosing protocol was designated SCD with PEG-ADA treatment regimen (SCD+PEG-ADA). Another group was injected with normal saline for 8 weeks; it was designated as SCD without PEG-ADA treatment regimen (SCD). Wild-type mice (C57Bl/6) used as control were injected with saline or PEG-ADA as with the SCD groups.
Chronic treatment with A2BR antagonist, PSB1115. SCD transgenic mice or wild type mice (eight weeks of age) were divided to two groups, one groups was injected with 200 μg of PSB1115 (an A2B receptor antagonist: obtained from Tocris Bioscience, St. Louis, Mo.) in PBS, daily for 8 weeks. One of groups was injected with saline.
as §2
Measurement of percentage of saturated Hb in mice. Percentage of saturated Hb (SpO2) in mice was measured by Oxysat (Kent Scientific Corp, CT). Mice were held in mouse holders (Kent Scientific Corp, CT) and Oxysat sensor was placed on a site approximately 1 cm from the base of the tail. When mouse was calm, the SpO2 was continuously recorded for about 2 minutes. The data were collected and SpO2 was calculated by average of SpO2 in two-minute measurement.

[4] = system: SCD Tg mice; test: Urine measurements (proteinuria, osmolality) in SCD Tg mice after chronic PEG-ADA
Method: as §3
Mouse urine collection and measurements. Urine was collected using a metabolic cage (Bioseb, France) for proteinuria and creatinine analysis using a commercially available kit (Exocell, Philadelphia) as described Zhou, et al. Angiotensin receptor agonistic autoantibodies induce pre-eclampsia in pregnant mice. Nat. Med. 2008; 14(8):855-862). For urine osmolality analysis, mice were deprived of water for 24 hours, then urine was collected on Parafilm, transferred to 1.5 ml tube, the urine was diluted 10 times with distilled water and measured with vapor pressure osmometer (Wescor, Logan, Utah).

[5] = SCD Tg mice, 2 h hypoxia/4 h reoxygenation, PEG-ADA pretreatment
[6] = SCD Tg mice, hypoxic/reoxygenation condition

B1: PEG-ADA: polyethylene glycol-modified adenosine deaminase, a drug used to lower adenosine concentrations in ADA-deficient humans (protein, UniProt P56658 2-363, looked up)
Adenosine deaminase: AQTPAFNKPKVELHVHLDGAIKPETILYYGRKRGIALPADTPEELQNIIGMDKPLSLPEFLAKFDYYMPAIAGCREAVKRIAYEFVEMKAKDGVVYVEVRYSPHLLANSKVEPIPWNQAEGDLTPDEVVSLVNQGLQEGERDFGVKVRSILCCMRHQPSWSSEVVELCKKYREQTVVAIDLAGDETIEGSSLFPGHVKAYAEAVKSGVHRTVHAGEVGSANVVKEAVDTLKTERLGHGYHTLEDATLYNRLRQENMHFEVCPWSSYLTGAWKPDTEHPVVRFKNDQVNYSLNTDDPLIFKSTLDTDYQMTKNEMGFTEEEFKRLNINAAKSSFLPEDEKKELLDLLYKAYGMPSPASAEQCL
modifications: PEGylated
B1 was tested, and the “2,3-DPG elevation by hypoxia/reoxygenation” value ([1]; SCD Tg mice RBCs, PEG-ADA pretreatment) was “significantly inhibited its elevation”, the plasma adenosine levels [1, 5] was “significantly lowered” and the plasma hemoglobin [1, 5] was “decreased”. The plasma total bilirubin [1, 5] was “decreased”, the sickling [1, 5] was “reduced” and the HCT [1, 6] was 21.25 ± 2.52 %. It also gave a Hb [1, 6] of 4.58 ± 0.38 g/dL, an MCH [1, 6] of 9.12 ± 0.72 pg and an MCHC [1, 6] of 18.65 ± 1.82 g/dL. It also gave an MCV [1, 6] of 48.93 ± 2.05 fL, an RBC [1, 6] of 4.94 ± 0.17 M/μl and an RDW [1, 6] of 29.72 ± 1.95 %. For the same molecule, the WBC [1, 6] was 18.68 ± 3.32 k/μl, the “neutrophil infiltration in the lungs” value ([2]; image quantification) was “significantly lowered” and the “proinflammatory cytokines in the lungs (INF-γ, IL-6, IL-1β and GM-CSF)” value ([2]; lung homogenates) was “significantly decreased”. The “percentage of saturated Hb” value ([3]; chronic PEG-ADA treatment) was “increased”, the “2,3-DPG levels in the RBCs” value ([3]; steady state, 8 weeks treatment) was “reduction” and the proteinuria [4] was “decreased”. For the same molecule, the urine osmolality [4] was “increased”.

From patent US20120134979A1, “METHODS AND COMPOSITIONS FOR THE TREATMENT OF SICKLE CELL DISEASE” (priority 2010, published 2012)
